{"source": "paper PMC5300068", "about": "“Flexibility in Mannan-Binding Lectin-Associated Serine Proteases-1 and -2 Provides Insight on Lectin Pathway Activation” (Structure(London, England:1993), 2017)", "proteins": {"B1": {"name": "rat MASP-2 CUB1-EGF-CUB2 (MASP-2 3D) (domain or fragment)", "chain": "SKWPEPVFGRLVSLGFPEKYGNHQDRSWTLTAPPGFRLRLYFTHFNLELSYRCEYDFVKLTSGTKVLATLCGQESTDTERAPGNDTFYSLGPSLKVTFHSDYSNEKPFTGFEAFYAAEDVDECRTSLGDSVPCDHYCHNYLGGYYCSCRVGYILHQNKHTCSALCSGQVFTGRSGFLSSPEYPQPYPKLSSCAYNIRLEEGFSITLDFVESFDVEMHPEAQCPYDSLKIQTDKREYGPFCGKTLPPRIETDSNKVTITFTTDESGNHTGWKIHYTSTAQP", "modifications": "N-glycosylated (glycosylation sites shown in Figure 1)", "notes": "Homodimer; production details are in the Supplemental Information; source: Chinese hamster ovary cells, purified (gel filtration, Superdex 200 16/60); not shown: His6, C-terminal, kept"}}, "biological_target": "the molecule itself", "assay": "AUC; sedimentation velocity, 50,000 rpm, absorbance optics, c(s) analysis; physiological ionic strength, buffers with Ca2+ or EDTA; 0.8-2.2 uM for full-length MASPs; dimer to monomers"}
{"protein": "B1", "values": [{"measurement": "stoichiometry N", "result": 2}]}
